Measured values from patent US20250361298A1 (CARTOGRAPHY BIOSCIENCES, published 2025).

T1: Cynomolgus LY6G6D ectodomain fused to mouse IgG2A Fc (monovalent display, knob-in-hole) (cynomolgus, UniProt O95868 20-104 (human entry))
T1 construct: Same design as the human construct; Tags are not described; also called cyno LY6G6D-mouse Fc fusion antigen; cynomolgus monkey LY6G6D
T1 chain: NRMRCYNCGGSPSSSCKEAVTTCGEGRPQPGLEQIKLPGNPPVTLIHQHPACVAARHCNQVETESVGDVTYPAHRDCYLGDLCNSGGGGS

T2: Human LY6G6D ectodomain fused to mouse IgG2A Fc (monovalent display, knob-in-hole) (human, biotinylated for BLI capture (site not stated))
T2 chain: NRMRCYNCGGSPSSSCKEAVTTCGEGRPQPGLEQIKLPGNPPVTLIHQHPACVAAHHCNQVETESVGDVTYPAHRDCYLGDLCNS


Tests used:
[1] = biological target: T1, Cynomolgus LY6G6D ectodomain fused to …; test: SPR, Biacore 8K+, cyno LY6G6D-mouse Fc captured by anti-mouse antibody on CM5, antibody as analyte 50-0.7813 nM, 25 C
Experimental: (§1) SPR multipoint kinetic analyses against human and cynomolgus monkey LY6G6D was also performed. LY6G6D binding kinetics were performed via surface plasmon resonance (SPR) on a Biacore 8K+. A Mouse Antibody Capture Kit, type 2 (Cytiva 29215281) was used for amine coupling to a CM5 sensor chip (BR100530) and the immobilization was performed exactly according to the manufacturer's standard settings. To begin an SPR run, 7 startup cycles were run following chip immobilization to establish sensor stability. In these, LY6G6D-mouse Fc fusion antigen was first flowed into just flow cell 2 at 10 uL/min at a 5 nM concentration with a 120 sec contact time. 1×HBS-EP+ buffer, pH 7.6 was then flowed at 30 μL/min with a 420 sec contact time into the chip. Finally regeneration solution (10 mM Glycine-HCl pH 1.7) was flowed at 30 uL/min with a 120 sec contact time.
(§2) After this point, 16 analysis cycles were run, 8 first with human LY6G6D-mouse Fc fusion antigen and 8 next for cyno LY6G6D-mouse Fc fusion antigen. In both antigen formats, the antigen was captured at 10 uL/min at a 5 nM concentration diluted into 1×HBS-EP+ buffer, pH 7.6 with a 120 sec contact time. Next, selected antibodies diluted into 1×HBS-EP+ buffer, pH 7.6 were run as the analytes across a 7-point dilution series, 50 nM to 0.7813 nM with two-fold dilutions. A contact time of 300 sec followed by dissociation time of 1200 sec at a flow rate of 30 μL/min was used. Regeneration solution (10 mM Glycine-HCl pH 1.7) was flowed at 30 μL/min with a 120 sec contact time. Finally, a wait step of 60 sec with flow rate of 30 μL/min 1×HBS-EP+ buffer, pH 7.6 was used to re-establish sensor stability. These SPR binding studies were performed at 25° C.

[2] = biological target: T2, Human LY6G6D ectodomain fused to mouse …; test: SPR, Biacore 8K+, LY6G6D-mouse Fc captured by anti-mouse antibody on CM5, antibody as analyte 50-0.7813 nM, 25 C
Experimental: as §1, §2

| Kd [1] [nM] | koff [1] [s⁻¹] | kon [1] [M⁻¹ s⁻¹] | Kd [2] [nM] | koff [2] [s⁻¹] | kon [2] [M⁻¹ s⁻¹] | Binder |
| --- | --- | --- | --- | --- | --- | --- |
| 5.57 | 0.000448 | 80500 | 3.2 | 0.00031 | 96700 | CB21-498-142 (antibody, V domains shown) VH: EVQLVESGGGLVQPGGSLRLSCAASGFTFSSYAMNWVRQAPGKGLEGVSGISGSGGRIYYAESVKGRFQISRDNSKSTFYLQMNSLRAEDTAVYYCAKDLDVWGKGTTVTVSS VL: DVVMTQTPLSSPVTLGQSASISCRSSQSLVHSDANTYLNWLHQRPGQPPRLLIYKISNRFSGVPDRFSGSGSGTDFTLKISRVEAEDVGVYYCMQATQFPLTFGGGTKLEIK |
| 0.9 | 0.000149 | 166000 | 0.385 | 7.12e-05 | 185000 | CB21-499-177 (antibody, V domains shown) VH: EVQLVESGGGVVQPGRSLRLSCAASGFTFSSYGMHWVRQAPGKGLEWVAVIWYDASNKEYAPSVKGRFTISRDNSKNTLYLQMNSLRAEDTAIYYCARPGEGDYWGQGTLVTVSS VL: DIQMTQSPSSLSASVGDRVTITCRASQGVRNDFGWFQQKPGKAPKRLIYGASSLQSGVPSRFSGSGSGTEFTLTISSLQPEDFATYYCLQQNSYPWTFGQGTKLEIK |
